Source: article PMC4549301 (2015)

B1: GST–HCF-1rep1, wild type (HCF-1 residues 867–1071) [human] / Recombinant human O-linked β-N-acetylglucosamine transferase (OGT), wild type [human] (parent)
chain 1: PAVTTLVVKGTTGVTTLGTVTGTVSTSLAGAGGHSTSASLATPITTLGTIATLSSQVINPTAITVSAAQTTLTAAGGLTTPTITMQPVSQPTQVTLITAPSGVEAQPVHDLPVSILASPTTEQPTATVTIADSGQGDVQPGTVTLVCSNPPCETHETGTTNTATTTVVANLGGHPQPTQVQFVCDRQEAAASLVTSTVGQQNGSV
chain 2: MASSVGNVADSTGLAELAHREYQAGDFEAAERHCMQLWRQEPDNTGVLLLLSSIHFQCRRLDRSAHFSTLAIKQNPLLAEAYSNLGNVYKERGQLQEAIEHYRHALRLKPDFIDGYINLAAALVAAGDMEGAVQAYVSALQYNPDLYCVRSDLGNLLKALGRLEEAKACYLKAIETQPNFAVAWSNLGCVFNAQGEIWLAIHHFEKAVTLDPNFLDAYINLGNVLKEARIFDRAVAAYLRALSLSPNHAVVHGNLACVYYEQGLIDLAIDTYRRAIELQPHFPDAYCNLANALKEKGSVAEAEDCYNTALRLCPTHADSLNNLANIKREQGNIEEAVRLYRKALEVFPEFAAAHSNLASVLQQQGKLQEALMHYKEAIRISPTFADAYSNMGNTLKEMQDVQGALQCYTRAIQINPAFADAHSNLASIHKDSGNIPEAIASYRTALKLKPDFPDAYCNLAHCLQIVCDWTDYDERMKKLVSIVADQLEKNRLPSVHPHHSMLYPLSHGFRKAIAERHGNLCLDKINVLHKPPYEHPKDLKLSDGRLRVGYVSSDFGNHPTSHLMQSIPGMHNPDKFEVFCYALSPDDGTNFRVKVMAEANHFIDLSQIPCNGKAADRIHQDGIHILVNMNGYTKGARNELFALRPAPIQAMWLGYPGTSGALFMDYIITDQETSPAEVAEQYSEKLAYMPHTFFIGDHANMFPHLKKKAVIDFKSNGHIYDNRIVLNGIDLKAFLDSLPDVKIVKMKCPDGGDNADSSNTALNMPVIPMNTIAEAVIEMINRGQIQITINGFSISNGLATTQINNKAATGEEVPRTIIVTTRSQYGLPEDAIVYCNFNQLYKIDPSTLQMWANILKRVPNSVLWLLRFPAVGEPNIQQYAQNMGLPQNRIIFSPVAPKEEHVRRGQLADVCLDTPLCNGHTTGMDVLWAGTPMVTMPGETLASRVAASQLTCLGCLELIAKNRQEYEDIAVKLGTDLEYLKKVRGKVWKQRISSPLFNTKQYTMELERLYLQMWEHYAAGNKPDHMIKPVEVTESA

Variants of: B1
Test: in vitro HCF-1rep1-OGT binding assay (OGT pull-down, quantified immunoblot)
Conditions: with Recombinant human O-linked β-N-acetylglucosamine transferase (OGT), in the presence of UDP-GlcNAc, read off a plot

screen value (log2 fold change)	Variant
0.8	chain 1 PAVTTLVVKGTTGVTTLGTVTGTVSTSLAGAGGHSTSASLATPITTLGTIATLSSQVINPTAITVSAAQTTLTAAGGLTTPTITMQPVSQPTQVTLITAPSGVEAQPVHDLPVSILASPTTEQPTATVTIADSGQGDVQPGTVTLVCSNPPCATHETGTTNTATTTVVANLGGHPQPTQVQFVCDRQEAAASLVTSTVGQQNGSV [chain 1 E153A]
